test: soluble on expression in E. coli; label from the status in PepcDB or PDB records

| Sequence | soluble on expression in E. coli |
| --- | --- |
| MSEKLQKVLARAGHGSRREIESIIEAGRVSVDGKIAKLGDRVEVTPGLKIRIDGHLISVRESAEQICRVLAYYKPEGELCTRNDPEGRPTVFDRLPKLRGARWIAVGRLDVNTCGLLLFTTDGELANRLMHPSREVEREYAVRVFGQVDDAKLRDLSRGVQLEDGPAAFKTIKFSGGEGINQWYNVTLTEGRNREVRRLWEAVGVQVSRLIRVRYGDIPLPKGLPRGGWTELDLAQTNYLRELVELPPETSSKVAVEKDRRRMKANQIRRAVKRHSQVSGGRRSGGRNNNGLEHHHHHH | not soluble |
| MAHHHHHHMSVATEMKVEEGIHLCGDQEFKLEDISSCVSEIFEKKKKYENIPFIQVAPMINVTNRHFRALVRTITRRAQVWTEMIVDNTLLYNLNNLEEHLGFNSNEHPIVCQLGGSDATSLAEAAVLVEQAGYDEINLNVGCPSTKVANKGAFGAYLMKKPEHVRNIVYEIKRKVHIPVSVKIRTGVDDCDSFPFLRSFVECISSVGCSHFIVHARKAWLKGLDPKQNRSVPPLEYPKVYSLCQLYPHLKFTLNGGVKTVEEAVALLNGYLPKKGNVDSEKTYVQVKNYQVNPLHGVMLGRACMENTTVLSQTDQLVYNEKPPHTAFSRRTVLDAYKSYLEENSSLCSLSSAFELLKPVLGILKGMPGHRIFRNKLDMYIRNYASTLPCSGILEKAMVDVDAVAPGCLDLPLADYKLQQEYIKNY | not soluble |
| MLTIEPPSATFPASGGSSTHTITSVNESRMAFKVKSSNNEHYRVRPVYGFVEARGKMKFEIIRLEGPVKDDKIMLQYAEVPADETDAQAPFKAGAQQGDVTILLKTN | not soluble |
| MSLIHPHIADALKVPDLVRLNDDLVLIRFESMKIYSALAAVRHLLERGTIRPGQTLIDSSSGIYAYALALACHRYGMRCHVVASTTVDTTTRAQLEILGATVEQVRPSRNLKLDQELRVRRVREILADHPDWHWMRQYHDDVHYLGYQEVADRITTAFPSTPLTVVGGVGSGASTGGLVERLRATDPSVRLVGVQPFGSVTFGSQAHHDPEAIIAGIGSSIVFDNVRHHLYDAVHWLDFTHAMSGTIALLRERAVFAGLSTGAGYLAATYEARRHPDRLHLVIGADTGHRYVERVFARHTEALDPAPLKPVEVSAPEEMSMPWSRMAWRRTAEGHHHHHH | soluble |
| MGHHHHHHSHELEALSQDPRRYEEWKWFRCPTLLEVLEQFPSVALPAPLLLTQLPLLQPRYYSVSSAPSTHPGEIHLTVAVLAYRTQDGLGPLHYGVCSTWLSQLKPGDPVPCFIRGAPSFRLPPDPSLPCILVGPGTGIAPFRGFWQERLHDIESKGLQPTPMTLVFGCRCSQLDHLYRDEVQNAQQRGVFGRVLTAFSREPDNPKTYVQDILRTELAAEVHRVLCLERGHMFVCGDVTMATNVLQTVQRILATEGDMELDEAGDVIGVLRDQQRYHEDIFGLTLRTQEVTSRI | not soluble |
| MTKIIPVASGKGGVGKTSFVANVGYKLSSLGKTVILVDLDLGGSNLHTCLGVKNKGVGIGSFINKKSKSFSDLVCKTSYDKLYLIPGDALYTGTANLPFSIKKKIIESIQKDLIADFIFLDLGSGTSYNTIDFYLASYSGVIVTIPETPSILNAYSFLKNALYRLLYLGFPQKSPERDYIGNFFKDKIEGTNLGFKDLVVGIELISLSSSLKVKRMMNNFYPRVVLNRIETSEEIAMCENLINVVKNNINIPIEFIGFVPFAKSFREAINNRVPFIDFEKNSKLNKYFEFIAGNLIKSPIEGSPYIYDDIYDMIKDQSRFIRKLEHHHHHH | soluble |
| MGSDKIHHHHHHMKSKIYILLLFLIFLSACANTRHSESDKNVLTVYSPYQSNLIRPILNEFEKQEHVKIEIKHGSTQVLLSNLHNEDFSERGDVFMGGVLSETIDHPEDFVPYQDTSVTQQLEDYRSNNKYVTSFLLMPTVIVVNSDLQGDIKIRGYQDLLQPILKGKIAYSNPNTTTTGYQHMRAIYSMHHRVSDVHQFQNHAMQLSKTSKVIEDVAKGKYYAGLSYEQDARTWKNKGYPVSIVYPIEGTMLNVDGIALVKNAHPHPKRKKLVQYLTSRSVQQRLVAEFDAKSIRKDVSEQSDQSIENLKNIPLIPKSKLPDIPHHKFLEMIQ | not soluble |
| SMATPNQTACNAESPVALEEAKTSGAPGSPQTPPERHDSGGSLPLTPRMESHSEDEDLAGAVGGLGWNSRSPRTQSPGGCSAEAVLARKKHRRRPSKRKRHWRPYLELSWAEKQQRDERQSQRASRVREEMFAKGQPVAPYNTTQFLMNDRDPEEPNLDVPHGISHPGSSGESEAGDSDGRGRAHGEFQRKDFSETYERFHTESLQGRSKQELVRDYLELEKRLSQAEEETRRLQQLQACTGQQSCRQVEELAAEVQRLRTENQRLRQENQMWNREGCRCDEEPGT | soluble |
| MKFDFPQVDLPCEILAWNDVTEDILNIYKQSCRLKAGIFAICTEGKMTATINLIDYEIKPNDLITLLPGTIIQFRERTEKVRLCFAGFSSECVERINLIKSMVSSFSKITECPIVELQEDIASYLIDYFSLLARVTCDEKLSLPSEMTEVSLRSILTAVGLIYQRYSSKNHNTNRKEEICRELVGLVTEHYTEERRAQFYADKLGISLQHLSTTVKQVTGRNVLDVIAYVVIIDAKAKLKSSNMTIQEIAYSLNFPSASFFGKYFRRYVGMSPLEFRNS | not soluble |
| MGSDKIHHHHHHMRLSELKDAGRSPTLPLSITLVDAAGSADLQLLTLLRVLPGQRYVGAGVWRGTPVLAKLLVGGNAARHFQRELQGVKLLAEQGLTTPTLLADGLKEGEGGWLLFEFLDGAQSLADAWAAVENLPVLADEQHLVLGEALTAVAHMHAQGLWQEDLHLDNLLRHAGKLYLIDGAGIRAETPGQQLSRPRVLENLGVFFAQLPKRLEPFIEELLVHYLLANAEHALPLEALQKQVDKVRNWRQKDYLDKAGRECSLFSVQRTLSGLQAIRRSEVEAMQPVLEQADALIDKGHLYKTGGAASVARIEVNGRQLVIKRYNIKNTAHWFKRFWRPSRAWHSWIEGHRLEFLDIATPRPLAVLEQRVLGLRSRAYLVTEYVDGPDLTACFAPHVESGDAPEEQVDALVHVMQQLIRERISHGDFKGHNLFWHNGQWSLIDLDAMCQHATQLSFAPAYARDRARLLRNWPTGSALHQRLDRLLPKLVD | not soluble |
| MSLTITLRVLGTSVTLLESLRERAEQELGIKLVYQIHDVQTAQRIAVMQPDSYDLYDQWFHNVDFVWPARAIQPIDTRRIALWHEINDLPKRGRLRPTDQPGSGSVPSERLFVQHDGSLGSTVTERISMLPLTHNADSFAYRPERLPEGLSPADESWGWLLDSAWGGRIALQSDAAIGALDAALAVQGAGLAQFNDIGNMSIEEIDLLADVLVRKQQQGHFGAFWSDDEEAAELMLSPTIDIQSLWSPTLVRLHRAGVKYRVAVPKEGYRGWFGGLSLSRYAKGPVLDAAYAYLNWWLSGWPGAVMARQGYYIGNPARSRDHLSAAEWDYWYAGLPAREQLLGSDGLPLIDAGEIRDGGSYEERMGHIAVWNSVMNEHNYLVRRWSDILRASGKSSAKAREGHHHHHH | soluble |
| MFEIRDVDLAGRIGRIYTQHGVVETPAFFPVIDVYRQEVSVDEVRAAGFGQVITNAYLLWKRFGWEAAEKGVHRILGFPGVVMTDSGAYQILEYGGVELSQGEVVEYQKRLGSDIAVILDIPTGDVGRREAEESVRETIRRALEARVMIEGDERIWVYPVQGGRYFDLVEESARVGGRLGFYRMYGIGSPTVFLERYMYHVVVEAVYRAKKHLPWGRPVHLFGAGHPLIFPYAVALGVDTFDSASYILYAREGRYITEYGVYRIEDLDYLPCSCPVCSRYTPQELREMDRVERTRLLALHNLYVISASMRRVKQAIREGRLWELLEETSRKHPSTARVMARMRRYIDALEKGSARGRGVVRGVRAYGLESLSNPRLSRFSSDAARLVEAMAEKWGGGKAVLKPLDPKPEPGQCESMVGGGEWILFYQPFLGVFPVEACGAYPSLQIDYPQEGLPAEVIGDLASKIASTVSILRGRGFTVRLEYCGKVEWQARAVEALKTAAAGDLPTVEACG | soluble |
| MSLADIPYGTDYPDAPWIDRDGHVLIDDGGKPTQVHRGQARIAYRLAERYQDKLLHVAGIGWHSWDGRRWAADDRGEAKRAVLAELRQALSDSLNDKELRADVRKCESASGVAGVLDLAAALVPFAATVADLDSDPHLLNVANGTLDLHTLKLRPHAPADRITKICRGAYQSDTESPLWQAFLTRVLPDEGVRGFVQRLAGVGLLGTVREHVLAILIGVGANGKSVFDKAIRYALGDYACTAEPDLFMHRENAHPTGEMDLRGVRWVAVSESEKDRRLAESTIKRLTGGDTIRARKMRQDFVEFTPSHTPLLITNHLPRVPGDDTAIWRRIRVVPFEVVIPADEQDRELDARLQLEADSILSWAVAGWSDYQRIGLSQPDAVLAATSNYREDSDTIKRFIDDECVTSSPVLKATTTHLFEAWQRWRVQEGVPEISRKAFGQSLDTHGYPVTEGHHHHHH | not soluble |
| MGSDKIHHHHHHMFYPEKRDGFSRTGKFEVEGRTVQTPAILEVGEIPEWDFGLAPTSLKFISEELYSRLRPINEEVEILTSLHLLSPRQLVQVFEDLSKEGVSPKPLYAASSALPSNVSLLIYLGADLVDNVLAIAKAYSGIYFLGEVEVEISKLRRLPCNCIHCRNRVVDEVENLLETTAKHNTEMLRMEVEKCRRLILNEELRNYVEGKVKLNPEFTAALRLSDSLRNHSTFPRFRKSRCNFSALESSSRFEVRYFFERALECYKPFSDTVLLLPCTARKPYLTSRTHRALRSKVKVNVNEIIISSPLVVPREFELLYPAVNYDTPVTGHWSEEEVSFVAGWLKRFIEKGGFRKVVAHVTGGYRKVVERVEDEVEAEVVYTAEKDVLSDESIERLKQEIESKGKVDLYRRILEHMLSYQFGITWSGKVAGRYPELELLEGKKRLARVDRIYGMLDIYEKIAAYLLEKNIYTVEIGDFEVKGTIFAGGVLRADEKIRPNDVVVFHNSRIFGVGLAAMSGKEMAGSEKGIAINVKRKFSF | not soluble |
| MTLPRFDQIRPKIEQHIREVKDFPKKGINFRDIMPLFTNPQLVNELCVVIADHVRHTVGHVDSVAGLEARGFLFGPQVAIQLGVPFVPIRKKGKLPGATIEASYVKEYGEDRVEIQEGAIKNGDIVFLIDDLLATGGTLRAATDLVVKAGGKVGEAFVLIELAPLNGRSKLPDVNLTTLISYDSA | not soluble |
| MGSDKIHHHHHHMQNGYYQATGGMVTQFNKLDVITNNLANINTSGYKRDDVVIADFKRIFKETQDELPIENHTRDASRFVNTTIDGIPQVSQEYTDFSLGSLKATNNPLDLAMTREDAFYLVQTKDGEVRLTKDGNFQLDDEGYLVNKQGYKVLSSDYFNNPQNAGIRIPNGAVQISVDKNGSIEVDGAQNARLFVAQVDDIRALQKDGDNVYKIDDLTRIRDLKNSNAIRQGFSQGSNVNPVTEMVGLIEANRMVEMYQKVMTAHMDDLNQEAINKLAAVK | not soluble |
| MPDQPSHNPAEHTTGEAPAPDALRADARRNRERVLEAAREVFSARGVDAPMSAVARRAGVGVATLYRRFPTRSSLVAAAFDDQLTVCAAAFDEALADPDPGHGLYTLLRKVCTTLVTDRGFETVFMAGFPASLDYDRERACAEERLAHLVRRARDAGRLREDFSPADIPLLLLAVSGLASQPPETAVPAAHRLLTYLFQSFQADPPPRPAPLPPAPTLDLSGLHRPAERP | not soluble |
| MSLELDAVSRSYKRWAPIYDFSFGKVSESPRRRTAAHVNARGGRVLEVGVGTGLSLPLYSHRVAVTGIDFSHEMLARAREKVEEMGLEPVKELRQMDARELDFPDETFDTVVAMFLVSVVPEPERVVSEMARVCRKGGEVVIVNHFARDKGPLAAVEKALARFENTLGWHSDFAIERVTADPRLEVVEQTPMSPGGLFTFLRFQRREGHHHHHH | soluble |
| MSQATKRKHVVKEVLGEHIVPSNQQQIVRVLRTPGNNLHEVETAQGQRFLVSMPSKYRKNIWIKRGDFLIVDPIEEGEKVKAEISFVLCKDHVRSLQKEGFWPEAFSEVAEKHNNRNRQTQPELPAEPQLSGEESSSEDDSDLFVNTNRRQYHESEEESEEEEAA | soluble |

From the DeepSol protein solubility set
